Consider 41 sequences from the nanobody polyreactivity screen of Harvey et al. (2022).

A short description of this data set: yeast display, Sf9 membrane polyspecificity reagent, FACS + sequencing; frameworks hold sequencing errors. The method, boiled down: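 Polyreactivity labels are assigned by the sorting gate from which each nanobody was recovered. The gates were low and high (top ~1%), set on anti-HA fluorescence for expression and streptavidin fluorescence for reagent binding. Before sorting, galactose-induced (36–48 hours) yeast display cells were stained for 1 hour at 4 °C with 10% biotinylated, detergent-solubilized Sf9 membrane reagent.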
“QVQLVESGGGLVQAGGSLRLSCAASGSTFVIYDMGWYRQAPGKERELVAAISYSGGSTYYADSVKGRFTISRDNAKNTVYLQMNSLKPEDTAVYYCNAGVLVLLYAYLPSELEYWGQGTQVTVSS”: the “polyreactivity (PSR sort gate)” value is listed as “low polyreactivity”.

In the case of “QVQLVESGGGLVQAGGSLRLSCAASGSTFVKNTMGWYRQAPGKERELVAAIRSSGGSTYYADSVKGRFTISRDNAKNTVYLQMNSLKPEDTAVYYCNKVLQASRSKYYYWGQGTQVTVSS”, the “polyreactivity (PSR sort gate)” value is “high polyreactivity”.

Regarding “QVQLVESGGGLVQAGGSLRLSCAASGSTFVLNAMGWDRQAPGKERELVAAITRDGRTYYADSVKGRFTISRDNAKNTVYLQMNSLKPEDTAVYYCARPARYSYGDGYWGQGTQVTVSS”, the “polyreactivity (PSR sort gate)” value is recorded as “low polyreactivity”.

On to “QVQLVESGGGLVQAGGSLRLSCAASGSTFVLNAMGWYRQAPGKERELVAAISSGGRTYYADSVKGRFTISRDNAKNTVYLQMNSLKPEDTAVYYCAAKPYRGGHRTLFGYWGQGTQVTVSS”, for which the “polyreactivity (PSR sort gate)” value is listed as “high polyreactivity”.

Take “QVQLVESGGGLVQAGGSLRLSCAASGSTFVLYAMGWYRQAPGKERELVATISSGGSTYYADSVKGRFTISRDNAKNTVYLQMNRLKPEDTAVYYCAASYSRFVDWIGDPGYDYWGQGTQVTVSS”: the “polyreactivity (PSR sort gate)” value was “low polyreactivity”.

For the sequence “QVQLVESGGGLVQAGGSLRLSCAASGSTFVNNAMGWYRQAPGTERELVAAIRSSDGRTYYADSVKGRFTISRDNAKNTVYLQMNSLKPEDTAVYYCATAVGTKYRTRIFEYYYWGQGTQVTVSS”, the “polyreactivity (PSR sort gate)” value was “high polyreactivity”.

As to “QVQLVESGGGLVQAGGSLRLSCAASGSTFVPNAMGWYRQAPGKEREFVAAIRVSGDNTYYADSVKGRFTISRDNAKNTVYLQMNSLKPEDTAVYYCAATGTVLGSVDYWGQGTQVTVSS”, the “polyreactivity (PSR sort gate)” value is “low polyreactivity”.

For “QVQLVESGGGLVQAGGSLRLSCAASGSTFVRNAMGWYRQAPGKERELVAAISRSGGRTYYADSVKGRFTISRDNAKNTVYLQMNSLKPEDTAVYYCAADVYDAGVRYDYWGQGTQVTVSS”, the “polyreactivity (PSR sort gate)” value is on record as “high polyreactivity”.

“QVQLVESGGGLVQAGGSLRLSCAASGSTFVRNAMGWYRQAPGKERELVAGISTGDNTYYADSVKGRFTISRDNAKNTVNLQMNSLKPEDTAVYYCAARGLPSNYYYYVHGYIMDYWGQGTQVTVSS”: the “polyreactivity (PSR sort gate)” value was “low polyreactivity”.

For “QVQLVESGGGLVQAGGSLRLSCAASGSTFVRYAMGWYRQAPGKERELVAAITWSGGITYYADSVKGRFTISRDNAKNTVYLQMNSLKPEDTAVYYCNAEQKQYEKSYDYWGQGTQVTVSS”, the “polyreactivity (PSR sort gate)” value was “low polyreactivity”.

Regarding “QVQLVESGGGLVQAGGSLRLSCAASGSTFVSNAMGWSRQAPGKERELVAAITRRGGSTYYADSVKGRFTISRDNAKNTVYLQMNSLKPEDTAVYYCAAYSTLTPAYEYWGQGTQVTVSS”, the “polyreactivity (PSR sort gate)” value is listed as “high polyreactivity”.

As for “QVQLVESGGGLVQAGGSLRLSCAASGSTFVSNVMGWYRQAPGKERELVAAITSGGSTYYADSVKGRFTISRDNAKNTVYLQMNSLKPEDTAVYYCAAGGRWARWLFPSRYDYWGQGTQVTVSS”, the “polyreactivity (PSR sort gate)” value was “low polyreactivity”.

Consider “QVQLVESGGGLVQAGGSLRLSCAASGSTFVTNAMVWYRQAPGKEREFVAAIRWSAGNTYYADSVKGRFTISRDNAKNTVFLQMNSLKPEDTAVYYCAADIYEQRSTYYAEYYSWGQGTQVTVSS”, for which the “polyreactivity (PSR sort gate)” value is “low polyreactivity”.

Consider “QVQLVESGGGLVQAGGSLRLSCAASGSTFVTNGMGWYRQAPGKERELVAAISGNVGSTYYADSVKGRFTISRDNAKNTVYLQMNSLKPEDTAVYYCAARQYRPSDYDYWGQGTQVTVSS”, for which the “polyreactivity (PSR sort gate)” value is reported as “low polyreactivity”.

Consider “QVQLVESGGGLVQAGGSLRLSCAASGSTFVTNVMGSYRQAPGKERELVAAISYSGGNTYYEDSVKGRFTISRDNSKNTVYLQRNSLNPEDTAVYYCDASYKQFKKMGYWGQGTQVTVSS”, for which the “polyreactivity (PSR sort gate)” value was “high polyreactivity”.

“QVQLVESGGGLVQAGGSLRLSCAASGSTFVTYTMGWYRQAPGKERELVAAISWSGDTTYADSVKGRFTISRDNAKNTVYLQMNSLKPVDTAVYYCAADDDWSGVEFDYLGQGTQVTVSS”: the “polyreactivity (PSR sort gate)” value is on record as “low polyreactivity”.

For “QVQLVESGGGLVQAGGSLRLSCAASGSTFVVNTMGRYRQAPGKERELVAAISTGSSTYADSVKGRFTISRDNAKNTVYLQMNSLKPEDTAVYYCNTAFPGKYDYWGQGTQVTVSS”, the “polyreactivity (PSR sort gate)” value is recorded as “low polyreactivity”.

As to “QVQLVESGGGLVQAGGSLRLSCAASGSTFVVYAMGWYRQAPGKERELVAAIDLSVGDTYYADSVKGRFTISRDNAKNTVYLQMNSLKPEDTAVYYCAAEFYSYKYPDYDYWGQGTQVTVSS”, the “polyreactivity (PSR sort gate)” value is given as “low polyreactivity”.

“QVQLVESGGGLVQAGGSLRLSCAASGSTFVWNAMGWYRQAPGKERELVASISSSGDRTYYADSVKGRFTISRDNAKNTVYLQMNSLKPEDTAVYYCAARYTRADYDYLGQGTQVTVSS”: the “polyreactivity (PSR sort gate)” value is given as “high polyreactivity”.

With “QVQLVESGGGLVQAGGSLRLSCAASGSTFVWYAMGWYRQAPGKEREFDATISWSDGSRYYADSVKGRFTISRDNAKNTVYLHMNSLKPEDPAVYYCASDVDRFFTYTYDYWGQGTQVTVSS”, the “polyreactivity (PSR sort gate)” value was “low polyreactivity”.

Take “QVQLVESGGGLVQAGGSLRLSCAASGSTFVWYAMGWYRQAPGKERELVAVIDWSGGSTSYADSVKGRFTISRDNAKNTVYLQMNSLKPEDTAVYYCAADSGHYYGLYYWGQGTQVTVSS”: the “polyreactivity (PSR sort gate)” value is recorded as “low polyreactivity”.

Consider “QVQLVESGGGLVQAGGSLRLSCAASGSTFVYMGGYRQAPGKEREFVAITFSGGRTYADSVKGRFTISRDNAKNTVYLQMNSLKPEDTAVYYCNKGDDFYSTYSYDYWGQGTQVTVSS”, for which the “polyreactivity (PSR sort gate)” value is “low polyreactivity”.

On to “QVQLVESGGGLVQAGGSLRLSCAASGSTFVYNAMGWYRQAPGKEREFVAVINWSGGRTYADSVKGRFTISRDNAKNTVYLQMISLKPEDTEVYYCIARRRTGYRPAMDYWGQGTEVTVSS”, for which the “polyreactivity (PSR sort gate)” value is “high polyreactivity”.

Consider “QVQLVESGGGLVQAGGSLRLSCAASGSTFVYNAMGWYRQAPGKERELVAAISRRGTSTYYADSVKGRFTISRDNAKNTVYLQMNSLKPEDTAVYYCAASQLSRSGQYRRDYWGQGTQVTVSS”, for which the “polyreactivity (PSR sort gate)” value is given as “high polyreactivity”.

Consider “QVQLVESGGGLVQAGGSLRLSCAASGSTFVYNAMGWYRQAPGKERELVAAITVIGGRTYYADSVKGRFTISRDNAKNTVYLQMISLKPEDTAVYYCNADATESIGYYDEYEYWGQGTQVTVSS”, for which the “polyreactivity (PSR sort gate)” value is “low polyreactivity”.

Turning to “QVQLVESGGGLVQAGGSLRLSCAASGSTFVYSAMGWYRQAPGKERELVAAIRNGDGTNYADSVKGRFTISRDNAMNTVYLQMNSLKPEDTAVYYCAAPQGEYFYVYEFDYWGQGTQVTVSS”, the “polyreactivity (PSR sort gate)” value is listed as “low polyreactivity”.

Consider “QVQLVESGGGLVQAGGSLRLSCAASGSTFVYYAMGWYRQAPGKERELVAAINRSGTRTYYADSVKGRFTISRDNAKNTVYLQMNSLKPEDTAVYYCAKAVQGKYGYWGQGTQVTVSS”, for which the “polyreactivity (PSR sort gate)” value is listed as “high polyreactivity”.

Turning to “QVQLVESGGGLVQAGGSLRLSCAASGSTFVYYAMGWYRQAPGKERELVAAISSGGNTKYADSVKGRFTISRDNAKNTVYLQMNSLKPEDTAVYYCARESQSYYDHDYWGQGTQVTVSS”, the “polyreactivity (PSR sort gate)” value was “low polyreactivity”.

Consider “QVQLVESGGGLVQAGGSLRLSCAASGSTFVYYAMGWYRQAPGKERELVAAITGSVDSTYYADSVKGRFTISRDNAKNTVYLQMNSLKPEDTAVYYCAADTYSTYWGQGTQVTVSS”, for which the “polyreactivity (PSR sort gate)” value is given as “low polyreactivity”.

Take “QVQLVESGGGLVQAGGSLRLSCAASGSTFVYYDMGWYRQAPGKERELVAAISRGGGSTYYADSVKGRFTISRDNAKNTVYLQMNSLKPEDTAVYYCAAVAGYRYYWGQGTQVTVSS”: the “polyreactivity (PSR sort gate)” value is recorded as “high polyreactivity”.

Consider “QVQLVESGGGLVQAGGSLRLSCAASGSTFVYYTMGWYRQAPGKERELVATISSRGGSTYYADSVKGRFTISRDNAKNTVYLQMNSLKPEDTAVYYCAKRGPFYGNYDYWGQGTQVTVSS”, for which the “polyreactivity (PSR sort gate)” value was “high polyreactivity”.

On to “QVQLVESGGGLVQAGGSLRLSCAASGSTFWANAMGWSRPAPGKERELVAAITSTGITYYADSVKGRFTISRDNAKNTVYLQMNSLIPEDTAVYYCAAEPPDEFWTDLLVDYFLGYEYWGPGTQVTVSS”, for which the “polyreactivity (PSR sort gate)” value is listed as “low polyreactivity”.

For “QVQLVESGGGLVQAGGSLRLSCAASGSTFWATAMGWYRQAPGKERELVAAITTSGASTNYADSVKGRFTISRDNAKNTVYLQMNSLKPEDTAVYYCAADYDSYYWYNYWGQGTQVTVSS”, the “polyreactivity (PSR sort gate)” value is listed as “low polyreactivity”.

Regarding “QVQLVESGGGLVQAGGSLRLSCAASGSTFWEYAMGWYRQAPGKEREFVAAISYRGGGTYYADSVKGRFTISRDNAKNTVYLQKNSLKPEDTAVYYCAARRWRGRYWGDYWGQGTQVTVSS”, the “polyreactivity (PSR sort gate)” value is reported as “high polyreactivity”.

In the case of “QVQLVESGGGLVQAGGSLRLSCAASGSTFWFNAMGWYRQAPGKEREFVAAITWRGGSTYYSDSVKGRFTISRDNAKNTVYLQMNSLKPEDTAVYYCAAVTAYYYRRTYEYWGQGTQVTVSS”, the “polyreactivity (PSR sort gate)” value is given as “high polyreactivity”.

“QVQLVESGGGLVQAGGSLRLSCAASGSTFWFYAMGWYRPAPGKERELVAVISNSGSTYYADSVKGRFTISRDNAKNTVYLQMNSLQPEDTAVYYCNKDGGGDSYWYDYWGQGTQVTVSS”: the “polyreactivity (PSR sort gate)” value is “low polyreactivity”.

For the sequence “QVQLVESGGGLVQAGGSLRLSCAASGSTFWFYAMGWYRQAPGKERELVAAISRSSGSTYYADSVKGRFTISRDNAKNTVYLQMNSLKPEDTAVYYCAKGWSSVPTQYDYWGQGTQVTVSS”, the “polyreactivity (PSR sort gate)” value was “low polyreactivity”.

Regarding “QVQLVESGGGLVQAGGSLRLSCAASGSTFWFYAMGWYRQAPGKERELVAAITSSGSSTYYADSVKGRFTISRDNAKNTVYLQMNCLKPEDTAVYYCAADDSNDSPSLYYVAYNYWGQGTQVTVSS”, the “polyreactivity (PSR sort gate)” value is on record as “low polyreactivity”.

With “QVQLVESGGGLVQAGGSLRLSCAASGSTFWFYAMGWYRQAPGKERELVAVISNSGSTYYADSVKGRFTISRDNAKNTVYLQMNSLKPEDTAVYYCNKDGGGDSYWYDYWGQGTLVTVSS”, the “polyreactivity (PSR sort gate)” value is “low polyreactivity”.

Regarding “QVQLVESGGGLVQAGGSLRLSCAASGSTFWFYAMGWYRQAPGKERELVAVISNSGSTYYADSVKGRFTISRDNAKNTVYLQMNSLKPEDTAVYYSNKDGGGDSYWYDYWGQGTQVTVSS”, the “polyreactivity (PSR sort gate)” value is recorded as “low polyreactivity”.

On to “QVQLVESGGGLVQAGGSLRLSCAASGSTFWFYAMRWYRQAPGKERELVAAITRSAGSTYYADSVKGRFTISRDNAKNTVYLQMNSLKPEDTAVYYCAAQRESLYGGFDYWGQGTQVTVSS”, for which the “polyreactivity (PSR sort gate)” value is reported as “low polyreactivity”.
